Measured values taken from patent US20240270821A1, “GIP/GLP1/GCG TRI-RECEPTOR AGONISTS AND USES THEREOF” (priority 2023, published 2024).
Numbering of substitutions follows the chain as printed.

B1: Example 494 (peptide)
chain: YXQGTXTSDXSIXLDXKAQXXFIEYLLEGGPSSGEPPPEEG
modifications: synthetic construct; SITE 2: note = 2-Aminoisobutyric Acid; SITE 6: note = alpha-methyl-2-fluoro-L-phenylalanine; SITE 10: note = 3-(4-Pyridyl)-L-alanine; SITE 13: note = alpha-methyl-leucine; SITE 16: note = L-ornithine; SITE 17: note = Lysine is chemically modified through conjugation of the epsil
B2: Example 467 (peptide)
chain: YXQGTXTSDYXELLDKKAQXAFIEYLEEGGPSSGAPPPE
modifications: synthetic construct; SITE 2: note = 2-Aminoisobutyric Acid; SITE 6: note = alpha-methyl-2-fluoro-L-phenylalanine; SITE 11: note = alpha-methyl-L-serine; SITE 17: note = Lysine is chemically modified through conjugation of the epsilon-amino group of the Lysine side chain with (2-[2-(2-Amino-ethoxy)-e)
B3: Example 495 (peptide)
chain: B2 chain with Y10X, X11S, E12I, L13X
modifications: synthetic construct; SITE 2: note = 2-Aminoisobutyric Acid; SITE 6: note = alpha-methyl-2-fluoro-L-phenylalanine; SITE 10: note = 4-nitro-L-phenylalanine; SITE 13: note = alpha-methyl-leucine; SITE 17: note = Lysine is chemically modified through conjugation of the epsilon-amino group of the Lysine
B4: Example 468 (peptide)
chain: B2 chain with E12I
modifications: synthetic construct; SITE 2: note = 2-Aminoisobutyric Acid; SITE 6: note = alpha-methyl-2-fluoro-L-phenylalanine; SITE 11: note = alpha-methyl-L-serine; SITE 17: note = Lysine is chemically modified through conjugation of the epsilon-amino group of the Lysine side chain with (2-[2-(2-Amino-ethoxy)-e)
B5: Example 469 (peptide)
chain: B2 chain with E12I, A35E
modifications: synthetic construct; SITE 2: note = 2-Aminoisobutyric Acid; SITE 6: note = alpha-methyl-2-fluoro-L-phenylalanine; SITE 11: note = alpha-methyl-L-serine; SITE 17: note = Lysine is chemically modified through conjugation of the epsilon-amino group of the Lysine side chain with (2-[2-(2-Amino-ethoxy)-e)
B6: Example 473 (peptide)
chain: YXQGTXTSDXXIXLDXKAQXNFIEXLIEGGPSSGEPEPSEG
modifications: synthetic construct; SITE 2: note = 2-Aminoisobutyric Acid; SITE 6: note = alpha-methyl-2-fluoro-L-phenylalanine; SITE 10: note = 3-(4-Pyridyl)-L-alanine; SITE 11: note = alpha-methyl-L-serine; SITE 13: note = alpha-methyl-leucine; SITE 16: note = L-ornithine; SITE 17: note = Lysine is chemically mo
B7: Example 475 (peptide)
chain: B1 chain with Y25X, L27I
modifications: synthetic construct; SITE 2: note = 2-Aminoisobutyric Acid; SITE 6: note = alpha-methyl-2-fluoro-L-phenylalanine; SITE 10: note = 3-(4-Pyridyl)-L-alanine; SITE 13: note = alpha-methyl-leucine; SITE 16: note = L-ornithine; SITE 17: note = Lysine is chemically modified through conjugation of the epsil
B8: Example 483 (peptide)
chain: B1 chain with S11X, X21N, L27I, E40G, G41E
modifications: synthetic construct; SITE 2: note = 2-Aminoisobutyric Acid; SITE 6: note = alpha-methyl-2-fluoro-L-phenylalanine; SITE 10: note = 3-(4-Pyridyl)-L-alanine; SITE 11: note = alpha-methyl-L-serine; SITE 13: note = alpha-methyl-leucine; SITE 16: note = L-ornithine; SITE 17: note = Lysine is chemically mo
B9: Example 489 (peptide)
chain: B1 chain with L27I, E39S
modifications: synthetic construct; SITE 2: note = 2-Aminoisobutyric Acid; SITE 6: note = alpha-methyl-2-fluoro-L-phenylalanine; SITE 10: note = 3-(4-Pyridyl)-L-alanine; SITE 13: note = alpha-methyl-leucine; SITE 16: note = L-ornithine; SITE 17: note = Lysine is chemically modified through conjugation of the epsil
B10: Example 502 (peptide)
chain: B1 chain with S11X, L27I, E39S, E40G, G41T
modifications: synthetic construct; SITE 2: note = 2-Aminoisobutyric Acid; SITE 6: note = alpha-methyl-2-fluoro-L-phenylalanine; SITE 10: note = 3-(4-Pyridyl)-L-alanine; SITE 11: note = alpha-methyl-L-serine; SITE 13: note = alpha-methyl-leucine; SITE 16: note = L-ornithine; SITE 17: note = Lysine is chemically mo
B11: Example 476 (peptide)
chain: B1 chain with S11X, L27I
modifications: synthetic construct; SITE 2: note = 2-Aminoisobutyric Acid; SITE 6: note = alpha-methyl-2-fluoro-L-phenylalanine; SITE 10: note = 3-(4-Pyridyl)-L-alanine; SITE 11: note = alpha-methyl-L-serine; SITE 13: note = alpha-methyl-leucine; SITE 16: note = L-ornithine; SITE 17: note = Lysine is chemically mo
B12: Example 481 (peptide)
chain: B6 chain with N21X
modifications: synthetic construct; SITE 2: note = 2-Aminoisobutyric Acid; SITE 6: note = alpha-methyl-2-fluoro-L-phenylalanine; SITE 10: note = 3-(4-Pyridyl)-L-alanine; SITE 11: note = alpha-methyl-L-serine; SITE 13: note = alpha-methyl-leucine; SITE 16: note = L-ornithine; SITE 17: note = Lysine is chemically mo

Molecular target: hGLP-1R (Homo sapiens, UniProt P43220)
Assay: cell-based or functional assay

hGLP-1R, sequence (P43220 24-463): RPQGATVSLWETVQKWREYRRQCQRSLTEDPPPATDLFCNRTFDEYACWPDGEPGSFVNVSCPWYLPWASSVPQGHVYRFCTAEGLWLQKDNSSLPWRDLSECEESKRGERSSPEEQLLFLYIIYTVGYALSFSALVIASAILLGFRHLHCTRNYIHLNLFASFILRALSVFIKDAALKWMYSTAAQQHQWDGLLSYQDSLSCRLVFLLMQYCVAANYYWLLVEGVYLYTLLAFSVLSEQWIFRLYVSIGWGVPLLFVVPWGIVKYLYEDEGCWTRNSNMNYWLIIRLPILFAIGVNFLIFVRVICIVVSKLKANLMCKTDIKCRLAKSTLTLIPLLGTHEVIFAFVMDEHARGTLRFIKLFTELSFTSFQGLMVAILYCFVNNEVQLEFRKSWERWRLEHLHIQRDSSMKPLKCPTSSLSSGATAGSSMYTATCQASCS

Binder | Relative cAMP EC50, nM (0.1% casein) [nM] | cAMP Rel EC50 (receptor-expressing HEK-293 cells, 1% HSA) [nM] | Relative cAMP EC50 [nM] | cAMP Rel EC50 (1% HSA) [nM]
B1 | 0.211 | 19.9 |  | 
B2 | 0.358 | 36.4 |  | 
B3 | 0.274 | 53.8 |  | 
B4 | 0.466 | 30.7 |  | 
B5 | 0.562 | 61.7 |  | 
B6 | 0.173 | 11.4 |  | 
B7 | 0.254 | 18.6 |  | 
B8 | 0.188 | 18.2 |  | 
B9 | 0.172 | 11.8 |  | 
B10 |  |  | 0.326 | 30.6
B11 | 0.164 | 14.6 |  | 
B12 | 0.204 | 14.2 |  | 

Molecular target: T1, human GIP receptor (human) (UniProt P48546)
T1 sequence (looked up): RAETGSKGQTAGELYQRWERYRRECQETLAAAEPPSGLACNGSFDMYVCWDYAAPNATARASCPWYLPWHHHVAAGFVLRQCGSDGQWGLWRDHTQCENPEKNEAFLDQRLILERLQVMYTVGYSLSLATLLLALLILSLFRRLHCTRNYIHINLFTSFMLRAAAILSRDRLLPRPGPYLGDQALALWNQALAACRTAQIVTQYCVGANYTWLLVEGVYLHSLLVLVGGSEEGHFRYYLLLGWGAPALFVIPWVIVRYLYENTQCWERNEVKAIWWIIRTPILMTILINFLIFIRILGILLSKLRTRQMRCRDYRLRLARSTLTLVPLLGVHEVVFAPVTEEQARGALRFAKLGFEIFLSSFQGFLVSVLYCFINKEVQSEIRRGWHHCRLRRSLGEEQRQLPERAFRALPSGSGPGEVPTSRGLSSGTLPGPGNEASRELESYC
Assay: cell-based or functional assay

Binder | Relative cAMP EC50, nM (0.1% casein) [nM] | cAMP Rel EC50 (receptor-expressing HEK-293 cells, 1% HSA) [nM] | Relative cAMP EC50 [nM] | cAMP Rel EC50 (1% HSA) [nM]
B1 | 0.014 | 1.08 |  | 
B2 | 0.0855 | 10.7 |  | 
B3 | 0.0361 | 5.74 |  | 
B4 | 0.0222 | 4.76 |  | 
B5 | 0.031 | 4.24 |  | 
B6 | 0.0101 | 1.11 |  | 
B7 | 0.0173 | 1.85 |  | 
B8 | 0.0133 | 1.17 |  | 
B9 | 0.0121 | 1.25 |  | 
B10 |  |  | 0.0337 | 2.42
B11 | 0.0131 | 1.29 |  | 
B12 | 0.0164 | 1.19 |  | 

Molecular target: human glucagon receptor (human) (UniProt P47871)
Assay: cell-based or functional assay

human glucagon receptor (human), sequence (P47871 26-477): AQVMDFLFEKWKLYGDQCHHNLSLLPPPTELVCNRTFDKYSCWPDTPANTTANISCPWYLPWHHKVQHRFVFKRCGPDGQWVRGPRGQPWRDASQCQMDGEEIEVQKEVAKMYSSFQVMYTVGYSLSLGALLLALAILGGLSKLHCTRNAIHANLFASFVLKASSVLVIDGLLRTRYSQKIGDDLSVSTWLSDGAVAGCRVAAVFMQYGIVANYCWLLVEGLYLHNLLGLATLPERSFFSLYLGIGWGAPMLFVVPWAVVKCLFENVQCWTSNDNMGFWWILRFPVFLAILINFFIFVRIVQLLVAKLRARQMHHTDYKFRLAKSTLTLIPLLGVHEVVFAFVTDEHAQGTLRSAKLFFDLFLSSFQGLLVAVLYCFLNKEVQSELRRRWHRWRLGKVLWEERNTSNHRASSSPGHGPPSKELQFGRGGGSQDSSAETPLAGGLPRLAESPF

Binder | Relative cAMP EC50, nM (0.1% casein) [nM] | cAMP Rel EC50 (receptor-expressing HEK-293 cells, 1% HSA) [nM] | Relative cAMP EC50 [nM] | cAMP Rel EC50 (1% HSA) [nM]
B1 | 1.26 | 333 |  | 
B2 | 9.34 | 850 |  | 
B3 | 1.75 | 205 |  | 
B4 | 1.95 | 195 |  | 
B5 | 1.34 | 155 |  | 
B6 | 2.72 | 311 |  | 
B7 | 2.24 | 254 |  | 
B8 | 1.77 | 231 |  | 
B9 | 2.31 | 523 |  | 
B10 |  |  | 3.8 | 395
B11 | 1.34 | 90.2 |  | 
B12 | 1.22 | 100 |  | 
